Experimental findings from paper PMC2193355 are described below.

Experiment [1] addresses purified α-dystroglycan (α-DG) (UniProt Q28685). As to the kind of experiment: far-Western, overlay or dot blot.
The target in experiment [2] is high affinity virus binders. Kind of experiment: competitive inhibition binding assay.
Experiment [3] deals with low affinity viral binders. Kind of experiment: competitive inhibition binding assay.

Consider “LCMV WE c54 (purified virus; viral glycoprotein GP1/GP2) (complex)”, for which the logs higher affinity than WE c2.2 in experiment [1] came to 3 logs.

B1: soluble α-DG (receptor)
chain: HWPSEPSEAVRDWENQLEASMHSVLSDLHEALPTVVGIPDGTAVVGRSFRVTIPTDLIGSSGEVIKVSTAGKEVLPSWLHWDPQSHTLEGLPLDTDKGVHYISVSAAQLDANGSHIPQTSSVFSIEVYPEDHSEPQSVRAASPDLGEAAASACAAEEPVTVLTVILDADLTKMTPKQRIDLLHRMQSFSEVELHNMKLVPVVNNRLFDMSAFMAGPGNAKKVVENGALLSWKLGCSLNQNSVPDIRGVEAPAREGTMSAQLGYPVVGWHIANKKPPLPKRIRRQIHATPTPVTAIGPPTTAIQEPPSRIVPTPTSPAIAPPTETMAPPVRDPVPGKPTVTTRTRGAIIQTPTLGPIQPTRVSDAGTVVSGQIRATVTIPGYVEPTAVATPPTTTTKKPRVSTPKPATPSTDSSATTTRRPTKKPRTPRPVPRVTTKAPITRLETASPPTRIRTTTSGVPRGGEPNQRPELKNHIDRVDAWVGTYFEVKIPSDTFYDKEDTTTDKLKLTLKLREQQLVGEKSWVQFNSNSQLMYGLPDSSHVGKHEYFMHATDKGGLSAVDAFEIHVHKRPQGDKAPARFKAKFVGDPAPVVNDIHKKIALVKKLAFAFGDRNCSTVTLQNITRG
Take B1: the concentration of soluble α-DG for 33% blocking of virus binding to α-DG cells in experiment [2] fell in the range of 1 to 4 nM. The same molecule gave a concentration of soluble α-DG needed to block virus binding to α-DG cells in experiment [3] greater than 400 nM.
